The values below come from patent publication EP4806919A1 (Cells & Genes Biotech (Shanghai) Co., Ltd, dated 2026).

Experiment [1] addresses BCMA on cell surface of BCMA-positive cells (NCI-H929; RPMI-8226) (UniProt Q02223). Put plainly: flow cytometry on NCI-H929 cells, control without nanobody.
Experiment [2] deals with Cyno BCMA-His antigen (cyno (monkey)). Put plainly: phage ELISA, antigen coated 100 ng/well, Anti-M13 HRP.
Experiment [3] deals with Human BCMA-His recombinant protein (human) (UniProt Q02223). The description is as above.
For experiment [4], the target named is T1, Human BCMA-His recombinant protein (human, UniProt Q02223 1-54).
T1 construct: Supplied reagent (Chengdu Shengshi Junlian Biotechnology, Cat# BCA-H522y); also called Cat# BCA-H522y; not shown: His tag
T1 sequence (looked up): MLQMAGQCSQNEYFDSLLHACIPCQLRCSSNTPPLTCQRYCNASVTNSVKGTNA
Kind of experiment: ELISA, Human-BCMA-His coated 200 ng/well.

Experiment [5] has as its target BCMA on cell surface of BCMA-positive cells (NCI-H929; RPMI-8226) (UniProt Q02223). Put plainly: flow cytometry on NCI-H929 cells, antibody 10 ug/mL.
Experiment [6] has as its target T1, Human BCMA-His recombinant protein. Kind of experiment: ELISA, Human BCMA His coated 200 ng/well, anti-human Fc HRP.
For experiment [7], the target named is BCMA on cell surface of BCMA-positive cells (NCI-H929; RPMI-8226) (UniProt Q02223). Put plainly: flow cytometry on NCI-H929 cells, antibody 10 ug/ml, PE anti-human Fc.

Where “and” joins values, the source holds several entries; their conditions need not be identical. Identical values can stand only once.

Cyno BCMA-His antigen (cyno (monkey)), sequence (chain, as listed by the source): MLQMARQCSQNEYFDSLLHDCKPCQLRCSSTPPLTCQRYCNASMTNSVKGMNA

hIgG Fc-PE (antibody) gave an NCI-H929 Positive Rate% in experiment [1] of 0.04%.

B1: BC-HC-15 (positive phage clone, VHH displayed on phage) (VHH)
VHH: EVQLVQSGGGSVQAGGSLRLSCAASGGDISSTFMGWFRQAPGKEREGVAAIYTGDGTTDYADSVKGRFTIAQDNAKNTVYLEMSRLKPEDTALYYCATGLDGSGSVFSPRSFRYWGQGTQVTVSS
For B1, the OD (phage ELISA, monkey) in experiment [2] worked out at 1.79 OD450. Also, in experiment [3], the OD (phage ELISA, human) came out at 2.11 OD450.

B2: BC-HC-15 nanobody, recombinant VHH-hIgG1Fc antibody (Fc fusion)
chain: B1 VHH
notes: also called VHH-hFC; not shown: human IgG1 Fc (hIgG1Fc) from the pVHH-hIgG1Fc expression plasmid
With B2, the EC50 in experiment [4] is less than 0.01 µM; in experiment [6], 0.605 µg/mL and 7.57 nM. The molecule also yielded a positive binding rate in experiment [5] of more than 95%. Besides, in experiment [7], the NCI-H929 Positive Rate% was determined as 99.9%.
